T1: LAG3 Protein, Human, Recombinant (His Tag) (Sino Biological Catalog No. 16498-H08H) (human, UniProt P18627 23-450)
T1 construct: Bought protein; also called hLAG3-His; LAG3-His; not shown: His tag
T1 sequence (looked up): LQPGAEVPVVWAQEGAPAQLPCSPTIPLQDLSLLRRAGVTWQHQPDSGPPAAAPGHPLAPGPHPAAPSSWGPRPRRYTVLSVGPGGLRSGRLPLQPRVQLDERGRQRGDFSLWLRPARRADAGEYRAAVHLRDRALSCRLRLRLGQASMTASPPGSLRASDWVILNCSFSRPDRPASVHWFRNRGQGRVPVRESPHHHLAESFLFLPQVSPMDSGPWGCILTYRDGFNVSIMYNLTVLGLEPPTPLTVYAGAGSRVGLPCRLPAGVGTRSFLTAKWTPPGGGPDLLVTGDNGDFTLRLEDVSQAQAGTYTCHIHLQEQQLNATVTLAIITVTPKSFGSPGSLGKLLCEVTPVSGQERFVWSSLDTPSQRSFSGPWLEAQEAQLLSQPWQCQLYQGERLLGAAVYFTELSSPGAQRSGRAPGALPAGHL

T2: human LAG3 expressed on cells (human, UniProt P18627 23-525)
T2 sequence (looked up): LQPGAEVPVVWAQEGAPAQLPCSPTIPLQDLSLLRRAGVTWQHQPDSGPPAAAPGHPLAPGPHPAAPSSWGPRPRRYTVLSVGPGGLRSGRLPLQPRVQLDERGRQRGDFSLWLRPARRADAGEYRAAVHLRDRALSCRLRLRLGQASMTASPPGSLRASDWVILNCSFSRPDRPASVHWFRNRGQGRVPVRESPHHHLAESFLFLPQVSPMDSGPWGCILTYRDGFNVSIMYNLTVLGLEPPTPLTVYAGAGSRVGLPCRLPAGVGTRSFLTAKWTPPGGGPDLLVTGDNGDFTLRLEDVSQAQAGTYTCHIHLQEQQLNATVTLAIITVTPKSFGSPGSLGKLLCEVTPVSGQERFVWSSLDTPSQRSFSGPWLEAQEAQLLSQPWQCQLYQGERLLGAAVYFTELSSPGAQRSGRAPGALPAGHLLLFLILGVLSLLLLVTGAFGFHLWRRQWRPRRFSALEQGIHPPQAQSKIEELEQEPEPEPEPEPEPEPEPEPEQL


Legend:
[1] = molecular target: T1, LAG3 Protein, Human, Recombinant (His …); assay: SPR binning on LAG3-His; competitor 1
Experimental: (§1) The chip surface was regenerated after each cycle with 25 mM NaOH followed by HBS-EP wash provided in the kit.

[2] = molecular target: T2, human LAG3 expressed on cells; assay: cell-based or functional assay
[3] = molecular target: T1, LAG3 Protein, Human, Recombinant (His …); assay: SPR binning on LAG3-His; competitor 37
Experimental: as §1

[4] = molecular target: T1, LAG3 Protein, Human, Recombinant (His …); assay: SPR binning on LAG3-His; competitor 18
Experimental: as §1

[5] = molecular target: T1, LAG3 Protein, Human, Recombinant (His …); assay: SPR binning on LAG3-His; competitor BMS
Experimental: as §1

[6] = molecular target: T1, LAG3 Protein, Human, Recombinant (His …); assay: SPR binning on LAG3-His; competitor 73
Experimental: as §1

[7] = molecular target: T2, human LAG3 expressed on cells; assay: cell-based or functional assay; remark: listed apart in the source
[8] = molecular target: T1, LAG3 Protein, Human, Recombinant (His …); assay: SPR binning on LAG3-His; competitor 17
Experimental: as §1

[9] = molecular target: T1, LAG3 Protein, Human, Recombinant (His …); assay: SPR binning on LAG3-His; competitor 25
Experimental: as §1

[10] = molecular target: T1, LAG3 Protein, Human, Recombinant (His …); assay: SPR binning on LAG3-His; competitor 20
Experimental: as §1

[11] = molecular target: T1, LAG3 Protein, Human, Recombinant (His …); assay: SPR binning on LAG3-His; competitor 24
Experimental: as §1

[12] = molecular target: T1, LAG3 Protein, Human, Recombinant (His …); assay: SPR binning on LAG3-His; competitor 27
Experimental: as §1

[13] = molecular target: T1, LAG3 Protein, Human, Recombinant (His …); assay: SPR (Biacore), sdAb captured by anti-human Fc, LAG3-His analyte
Experimental: The binding of the single domain antibodies to recombinant human LAG3 protein (rhLAG3) was examined by Biacore™ assay. […] The coating was carried out according to the manufacturer’s instructions accompanying the kit (Catalog No. BR-1008-39, GE). […] The chip surface was regenerated after each cycle with 25 mM NaOH followed by HBS-EP wash provided in the kit.

[14] = molecular target: T1, LAG3 Protein, Human, Recombinant (His …); assay: SPR binning on LAG3-His; competitor 21
Experimental: as §1

RU [1] [RU]	EC50 for IL-2 rescue, hLAG3 Jurkat T system [2] [nM]	Efficacy (IL-2 production, BMS = 100%) [2] [%]	RU [3] [RU]	RU [4] [RU]	RU [5] [RU]	RU [6] [RU]	IL-2, % of BMS, at 0.005080526 ug/mL [7] [%]	IL-2, % of BMS, at 0.015241579 ug/mL [7] [%]	IL-2, % of BMS, at 0.045724737 ug/mL [7] [%]	IL-2, % of BMS, at 0.137174211 ug/mL [7] [%]	IL-2, % of BMS, at 0.411522634 ug/mL [7] [%]	IL-2, % of BMS, at 1.234567901 ug/mL [7] [%]	IL-2, % of BMS, at 3.703703704 ug/mL [7] [%]	IL-2, % of BMS, at 11.11111111 ug/mL [7] [%]	IL-2, % of BMS, at 33.33333333 ug/mL [7] [%]	IL-2, % of BMS, at 100 ug/mL [7] [%]	RU [8] [RU]	RU [9] [RU]	RU [10] [RU]	Binder	further results
44.7	8.12	43.4	44.1	39	31.7	47.6	3.24	-0.59	8.03	2.39	9.2	25.1	30.6	34.1	39.8	53.7	41	7.2	44.6	sdAb No. 25 (VHH, Fc of the tested form not described; also called sdAb 25; sdAb #25; not shown: Fc part implied by anti-human Fc capture and anti-human IgG Fc detection) VHH: QLQLVESGGGLVQAGGSLRLSCAASGSIESFSFMGWYRQAPGKQRELVAGFTGAASLSFSTYTDAVKGRFTISRDNAKNTVYLQMNSLKPEDTAVYFCNVDPWSQSWPGRYWGQGTQVTVSS	RU [11]: 46.4 RU; RU [12]: 50.9 RU; Kd [13]: 0.017 nM; koff [13]: 0.000108 s⁻¹; kon [13]: 6.31e+06 M⁻¹ s⁻¹; RU [14]: 49.3 RU
-13.6	7.72	46.5	-13.4	-7.5	15.2	-17	5.97	9.56	9.97	18	22.3	26.5	31.4	38	38	42.2	-2	17.9	-14.6	sdAb No. 17 (VHH, Fc of the tested form not described; also called sdAb 17; not shown: Fc part implied by anti-human Fc capture and anti-human IgG1 Fc detection) VHH: QLQLVESGGGLVQPGGSLRLSCAASGLTLDGYAIGWFRQAPGKEREGLACISGSDGSTHYLDSVKGRFTISRDNGKNTMALQMNSLQFGDTAIYYCAARRGSCSGSWTYWGQGTQVTVSS	RU [11]: -10.4 RU; RU [12]: -7 RU; Kd [13]: 0.181 nM; koff [13]: 0.0012 s⁻¹; kon [13]: 6.6e+06 M⁻¹ s⁻¹; RU [14]: -12.5 RU
-9.1	8.49	50.2	-9.1	-9.6	48.2	-15.1	5.57	13.4	12.1	18	27.3	36.5	43.4	50	52.9	52.8	-11.7	34	-11.7	sdAb No. 27 (VHH, Fc of the tested form not described; also called sdAb 27; not shown: Fc part implied by anti-human Fc capture and anti-human IgG Fc detection) VHH: QVQLVESGGGLVQPGGSLRLSCAASGFTLDYYAIGWFRQAPGKEREGVSCIRSSDGSTYYADSVKGRFTISSDNTKNTVYLQMNSLKPEDTAVYYCATDRYSDCRGPYENWGQGTQVTVSS	RU [11]: -10.1 RU; RU [12]: -6.2 RU; koff [13]: 4.09e-07 s⁻¹; kon [13]: 1.17e+07 M⁻¹ s⁻¹; RU [14]: -10.1 RU

Source: patent publication US20230303690A1 (published 2023)
